The test system of data set [1] is GSK3β. Nature of the data set: Western blot of Ser9 phosphorylation of GSK3β in NRVM. Type of data set: cell-based, rat. To be noted: compared to Luc modRNA. The procedure: Total protein was isolated from the respective cells or tissues at given time points. In brief, equal amounts of protein were resolved by SDS-PAG Electrophoresis system in 4%-15% Mini-PROTEAN TGX stain-free gels (Bio-Rad) and blotted onto nitrocellulose membranes (Bio-Rad). The membranes were blocked in Intercept® (TBS) blocking buffer (LI-COR) diluted 1:1 with PBS for 1 hour at room temperature and washed with PBST (1% Tween® 20, pH 7.4) for 10 min. Primary antibodies diluted in blocking buffer were added and incubated overnight at 4° C. Anti-PSAT1 (1:1,000, Invitrogen, #PA5-22124), anti-Flotillin 1 (1:1,000, Cell Signaling, #3253), anti-pSer9GSK3B (1:1,000, Cell Signaling, #9336), anti-GSK3B (1:1,000, Cell Signaling, #9315), and anti-β-actin (1:1000, Santa Cruz, #sc-47778) antibodies were used. The next day, membranes were washed with PBST (3×10 min). Anti-rabbit and anti-mouse IRDye 800CW secondary antibodies (LI-COR) were applied for 1 hr at room temperature. The membranes were washed with PBST (3×10 min) and antigen or antibody complexes were visualized and quantified using Odyssey Fc Imaging System (LI-COR Biosciences, model number 2800).
For orientation: In western blotting, separated proteins are transferred to a membrane and probed.

Data set [2] has as its system PSAT1. Put plainly: PSAT1 protein expression in mouse myocardium post-MI after modRNA delivery. The class given is in vivo. To be noted: 100 μg modRNA into myocardium post-MI; within 24 hours. The procedure:
In vivo transfection of modRNA was done as described previously in a recent method paper (Magadum A., et al., Circulation. 2020, 141 (15): 1249-1265; Sultana N., et al., Mol Ther, 2017, 25 (6): 1306-1315) using sucrose citrate buffer containing 10 μl of sucrose in nuclease-free water (0.3 g/ml), 10 μl of citrate (0.1M pH-7; Sigma) mixed with 10 μl of different concentrations of modRNA in saline to a total volume of 30 μl. Immediately after LAD ligation, mice received an intra-myocardial injection of modRNA (100 μg) in total volume of 30 μL at 3 different sites (mid-anterior×2 places and apical anterior) in the peri-infarct area (Magadum A., et al., Circulation. 2020, 141 (15): 1249-1265; Magadum, A., et al., 2021, Advanced Science, 9:2004661). For in vitro transfection, RNAiMAX transfection reagent (Life Technologies) was used according to manufacturer's recommendation (Magadum A., et al., Circulation. 2020, 141 (15): 1249-1265; Sultana N., et al., Mol Ther, 2017, 25 (6): 1306-1315).
All surgical and experimental procedures with mice were performed in accordance with protocols approved by Institutional Animal Care and Use Committees at Temple University Animal Care and Use Committee (IACUC). C57BL6 or CM-specific MADM mice (8-12-weeks-old) were anesthetized with isoflurane. […] This ratio was calculated as the heart tissue weight relative to the mouse total body weight in grams (g). […]

B1: PSAT1 modRNA: modified mRNA with N1-methylpseudouridine, transcribed in vitro, encoding phosphoserine aminotransferase 1 (ORF SEQ ID NO: 1, RNA SEQ ID NO: 2) (nucleic acid)
chain: AUGGAAGCCACCAAGCAAGUGGUUAACUUUGGGCCCGGGCCUGCCAAGCUGCCACACUCGGUAUUGUUGGAGAUCCAGAAGCAGCUACUAGACUACAGAGGACUCGGCAUCAGUGUGCUCGAAAUGAGUCACAGGUCAUCAGAUUUUGCCAAGAUUAUUGGCAAUACAGAGAAUCUUGUGAGGGAAUUGCUAGCUGUUCCCAACAACUACAAGGUGAUCUUUGUACAAGGAGGUGGGUCUGGCCAGUUCAGUGCUGUCCCCUUAAAUCUGAUUGGCCUGAAAGCUGGAAGGAGUGCUGACUACGUGGUGACCGGAGCUUGGUCAGCUAAGGCUGCGGAAGAAGCCAAGAAGUUUGGAACGGUGAACAUUGUCCACCCUAAACUUGGAAGUUACACAAAAAUUCCAGACCCAAGCACCUGGAACCUCAACCCGGACGCCUCCUAUGUAUACUUCUGUGCAAACGAGACUGUGCACGGGGUGGAGUUUGACUUCGUACCUGACGUCAAGGGAGCGGUGCUGGUCUGUGACAUGUCCUCAAACUUCUUAUCCAGGCCGGUGGAUGUUUCCAAGUUUGGUGUGAUUUUCGCUGGUGCUCAGAAGAAUGUUGGCUCUGCCGGGGUGACGGUGGUGAUUGUCCGGGAUGACCUGCUGGGGUUCUCGCUCAGAGAGUGCCCAUCAGUCCUUGACUACAAAGUGCAGGCUGGGAACAACUCUUUGUAUAACACACCUCCGUGCUUCAGCAUCUACGUCAUGGGCAUGGUCCUGGAAUGGAUCAAGAACAACGGCGGGGCCGCAGCCAUGGAGAAGCUCAGCUCCAUCAAAUCCCAAAUGAUUUAUGAGAUCAUUGAUAAUUCUCAAGGAUUUUAUGUAUGCCCAGUGGAGCGCCAGAAUAGAAGCAGGAUGAACAUCCCAUUUCGCAUUGGCAACGCCAAAGGAGACGAAGCUUUGGAAAAGCGGUUUCUUGACAAGGCGGUAGAACUCAACAUGAUCUCCUUGAAGGGGCACAGGUCAGUGGGAGGCAUUCGUGCCUCUCUGUAUAACGCUGUCACAACCGAAGACGUUGAGAAGCUGGCGGCCUUCAUGAAGAAUUUCUUGGAGAUGCAUCAGCUGUGA
modifications: N1-methylpseudouridine
B1: the “phosphorylation of GSK3β at Ser9” value in data set [1] was “induces”. Moreover, in data set [2], the “PSAT1 protein expression in mouse myocardium” value was “robust”.

(Values after patent publication US20250215403A1, “Compositions and Methods for Cardiac Tissue Regeneration” (Temple University - Of The Commonwealth System Of Higher …, priority 2022, published 2025).)
